Data on three molecules can be found in patent US20160298152A1 (CALIFORNIA INSTITUTE OF TECHNOLOGY, published 2016).

For data set [1], the target named is T1, PfTrpA (α-subunit of tryptophan synthase from Pyrococcus furiosus) (Pyrococcus furiosus, UniProt Q8U094 1-248).
T1 construct: Expressed in E. coli; Purified by Q HP HiTrap flow-through, ammonium sulfate precipitation and phenyl Sepharose chromatography; also called P. furiosus TrpA
T1 sequence (looked up): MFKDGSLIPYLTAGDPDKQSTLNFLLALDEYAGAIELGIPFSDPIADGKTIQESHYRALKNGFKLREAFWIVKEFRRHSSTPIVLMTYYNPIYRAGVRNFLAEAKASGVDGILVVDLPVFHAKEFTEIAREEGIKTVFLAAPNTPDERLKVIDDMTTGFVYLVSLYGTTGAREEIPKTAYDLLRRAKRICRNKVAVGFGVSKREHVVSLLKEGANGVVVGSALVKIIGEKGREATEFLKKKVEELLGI
Kind of data set: inferred from inhibition of enzyme activity on adding PfTrpA.

The target of data set [2] is T2, PfTrpB (wild-type β-subunit of tryptophan synthase from Pyrococcus furiosus).
T2 chain: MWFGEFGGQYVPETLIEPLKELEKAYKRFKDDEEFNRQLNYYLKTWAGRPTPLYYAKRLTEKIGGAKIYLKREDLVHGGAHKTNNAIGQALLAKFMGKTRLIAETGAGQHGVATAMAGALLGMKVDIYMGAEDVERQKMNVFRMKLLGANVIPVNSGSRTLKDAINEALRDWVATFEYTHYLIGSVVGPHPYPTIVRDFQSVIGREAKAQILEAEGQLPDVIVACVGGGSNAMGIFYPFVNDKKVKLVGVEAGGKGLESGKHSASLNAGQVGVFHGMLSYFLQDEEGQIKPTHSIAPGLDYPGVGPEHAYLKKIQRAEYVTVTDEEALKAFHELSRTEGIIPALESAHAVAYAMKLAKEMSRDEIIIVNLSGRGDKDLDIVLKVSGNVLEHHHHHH

In data set [3] the target is T3, PfTrpB^2G9 (PfTrpB T292S).
T3 chain: T2 chain with T292S

Data set [4] addresses T4, PfTrpB^4D11 (PfTrpB E17G, I68V, T292S, F274S, T321A).
T4 chain: T2 chain with E17G, I68V, F274S, T292S, T321A

For data set [5], the target named is T5, PfTrpB^0B2 (PfTrpB P12L, E17G, I68V, T292S, F274S, T321A).
T5 chain: T2 chain with P12L, E17G, I68V, F274S, T292S, T321A

Data set [6] concerns the target T6, TmTrpB (wild-type β-subunit of tryptophan synthase from Thermotoga maritima).
T6 chain: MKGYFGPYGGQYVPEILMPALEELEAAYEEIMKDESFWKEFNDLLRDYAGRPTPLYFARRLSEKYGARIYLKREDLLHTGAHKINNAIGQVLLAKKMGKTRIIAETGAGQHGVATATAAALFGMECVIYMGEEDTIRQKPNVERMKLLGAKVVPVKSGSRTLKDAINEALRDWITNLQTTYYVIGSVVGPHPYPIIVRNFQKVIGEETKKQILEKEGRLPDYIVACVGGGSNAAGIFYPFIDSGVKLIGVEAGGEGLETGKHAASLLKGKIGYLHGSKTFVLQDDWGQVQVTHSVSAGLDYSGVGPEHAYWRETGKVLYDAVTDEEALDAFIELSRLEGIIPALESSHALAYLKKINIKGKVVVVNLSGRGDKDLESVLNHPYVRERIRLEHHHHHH

Numbering of substitutions follows the chain as printed. Names may count otherwise.

B1: PfTrpB^0B2 (PfTrpB P12L, E17G, I68V, T292S, F274S, T321A) (enzyme)
chain: T2 chain with P12L, E17G, I68V, F274S, T292S, T321A
notes: not shown: C-terminal his-tag from pET22(b)+
As to B1, the binding result in data set [1] is recorded as “binds”.

B2: PfTrpA (α-subunit of tryptophan synthase from Pyrococcus furiosus) (protein)
chain: T1 sequence (looked up)
Turning to B2, the “increase in catalytic efficiency” value in data set [2] was 12-fold increase in catalytic efficiency. For the same molecule, the kcat change with TrpA in data set [2] came to 3.2 fold; in data set [3], 0.34 fold; in data set [4], 0.3 fold; in data set [5], 0.04 fold.

B3: TmTrpA (α-subunit of tryptophan synthase from Thermotoga maritima) (protein)
chain: MKGFIAYIPAGFPDLETTRKILIALNELGITGVEIGVPFSDPVADGPVIQLAHSVALRNGVTIKKILEMLSEISVDYDLYLMSYLNPIVNYPEGKEKLLDELKKLGVKGLIIPDLPLREVKNVDIAYPIVPFVAPNTKDEEIDLINSVQAPFVYYISRYGVTGEREDLPFADHIKRVKERIKLPLFVGFGISRHEQVKKVWEIADGVIVGSALVRIMEENPKDEIPRKVVEKVKELLGK
Turning to B3, the kcat (s^-1) of the TmTrpS complex in data set [6] is 2.2 s⁻¹.
